Reference: article doi:10.1101/2021.12.03.471045 (bioRxiv, 2021)

Biological target: early pandemic (Wuhan) SARS-CoV-2 RBD (SARS-CoV-2, UniProt P0DTC2)
Assay: SPR
Details: both partners purified

B1: EY6A mAb (IgG) (antibody, V domains shown)
VH: EVQLVESGGGVVQPGRSLRLSCAASAFTFSSYDMHWVRQAPGKGLEWVAVISYDGSNKYYADSVKGRFTISRDNSKNTLYLQMNSLRAEDTAVYYCAKDGGKLWVYYFDYWGQGTLVTVSS
VL: not shown
Kd: 7.8 nM
